Assay results from the DeepSol protein solubility set.

Assay: soluble on expression in E. coli; label from the status in PepcDB or PDB records

In the case of “MDKFRVQGRTRLSGEVTISGAKNAALPILFAALLAEEPVELQNVPKLKDIDTTIKLLSQLGTKIERNNGSVFVDASAVNEFCAPYDLVKTMRASIWALGPLVARFGQGQVSLPGGCAIGARPVDLHITGLEQLGAEIKLEEGYVKASVNGRLKGAHIVMDKVSVGATVTIMSAATLAEGTTVIENAAREPEIVDTANFLNTLGAKISGAGTDRITIEGVTRLGGGVYRVLPDRIETGTFLVAAAISGGKVVCRQTRPDTLDAVLAKLREAGADIEVGDDWISLDMQGKRPKAITFRTAPHPGFPTDMQAQFSLLNLVAEGTGVITETIFENRFMHVPELIRMGAHAEIESNTVICYGVEQLSGAQVMATDLRASASLVLAGCIAEGVTIVDRIYHIDRGYERIEDKLRALGAKIERVKGE”, the “soluble on expression in E. coli” value is reported as “not soluble”.
In the case of “YKKGIKPDLESITLCREDYESSGGKEIFLSFEDTKNDLLIGYLRLRIPNNPFRKEITDKSALIRQVHVCGQQKELEGNSKELSWQHKGYGRLLIDEAEKIAKEEFEKDQMLINSGIGVREYYKKLRYKRVGPYMGKNLK”, the “soluble on expression in E. coli” value is reported as “not soluble”.
For “MSLNAGAVKLDESMTPMQAMAAVAAECVDHIARNAAVLAEVDTLGVYRAGTPEHVHQLRVGVRRLRSAWRLFDGWIADPSETLAQGARTHFSAFGMARDQDVLADTIMPLLARAGMPALPAEAAPSNDNAQSLAADRAFQGWLLELLAWSLDVPAEAAPPALRKRLTGRLRRWHLKVIDEGLRFGALELEARHELRKRVKRLRYGLSFAESLLPAARLRTYRKQLARVQDLLGEINDLAVARDYYQAALQAHPQAWFAVGWIGARLDGLTPQAQEAFDQLAHAKPFWKEGHHHHHH”, the “soluble on expression in E. coli” value was “not soluble”.
In the case of “MSLTNDYRFEFRPYQRRFLRSLTTNHGKWDIREGIILRLTDETLRVGWGEIAPISWFGSETLEQVLDFCRQLPGEITDETIFSIPDELPACQFGFESAWEWGSWKWGNEFFSMPNAQCPMPNAQSFSALLPFGEAALNQWETLWQKGYRTFKWKIGVDAIADELKIFESLTRILPASTKLRLDANGGLSYEEANLWLRTCDNLKANAELPLEIEFIEQPLPVEQFQQMLELSTSYETAIALDESVATLKQLAACHQQGWREIFVIKPGIVGSPSRLRKFCHQHQIDTVFSSVLETAIGRLAALQIAAELSRNNRAIGFGIDHFFEQEETWFQTLWNDLEGHHHHHH”, the “soluble on expression in E. coli” value is reported as “soluble”.
For “KDFTWNTGVTYSMNKNKILTLADNAINPITREKFSISSLNMGGLGSTRFILKEGGSMGDIYSLMDLKRDANGAVYIDENNSVVTESLEANNYIKLGSVLPKGNLAWRNNFSWKNINVAFLVSARLGGVVFSRTQAVLDNFGVSEASAAARDKGYVSVNGNDRVNPEGWYSVVAGGTAVPQYYIYSATNIRLQEASIGYTIPRKWLGNVCDIKVSLIGRNLWMIYNKAPFDPESVASTDNFYQGIDYFMMPSLRNIGFNLSFKF”, the “soluble on expression in E. coli” value was “not soluble”.
In the case of “MSLTPFGVRSVVFDPDKGLVINGEHVPIRGVNNHHDLGALGAAFNVRAAERQLQLLQQMGANAIRMSHNPPAPELLELTDRMGLLVVDEVFDSWEMKKTPLDFHLIFPQWHEPDLRAMLRRDRNHPSIILWSVGNEVGEQYTGEAGAAIARRLHAIVHAEDPTRPATAAMNYASPEMPLPAALDVISLNYQGEGIRDTPEFEGTERIRKPPQYPAFHAKFPRKAILSSETASALSSRGVYLFPVSAQSSAPVRDGRGGDSVAHQVSAYELHAVDFGSSADKVFAALDRHPFVAGEFVWTGFDYLGEPTPYYSSRSSYSGILDLAGFPKDRYWLYQARWRPELPMAHLLPHWSWPGREGQVTPVHVFTSGDEAELFVNGVSQGRKRKAPLQYRLRWDAVVYQPGELRVQAYKHGRPWASDRVQTAGRATRMQLSADRNQIRGDGKDLSFITVRLLDADGRPAPTAGDRLRFRVEGAGELVATDNGDPTNLEAFVLPEREGHHHHHH”, the “soluble on expression in E. coli” value is reported as “soluble”.
For “MILHGFHLSTSSHCLPFIFRHLFIFHSITALCDHMLSKFVVVEVSNSNNTMTLVEYLVTHGFDKFAVVTDLVDHPSFKYKDGSSSPESPSTTASTAAQHTPPRTAVSTPTSINTPVPPHQNKQRHSIDKIAANLSTKKVSPSSIEKQLQRTSHNPLHQLSTPHALSQLQKLLEEQHKINQMNIQKKEQERQQAEIQRILLQQANAAQINHSFGLERLTPEYDDNHHSETISKASSEDLKTEPDSTDFGLGTSDDQVRASMLHLLHPVFAPAFGMLDAENIFGAASKPTTPASKRRNTDSNGAPSKKHRWLPVNELEESRSSRGKNCGRVHCKATYKCALCGKPTTLNSTGSRWNLLRHVIMIHSDCKPYKCWDCDFTGIKSNVISHARQCRHNAEDAHDITTDEMRAEWNLRLHECFPDYVRAKERGWQPEEVTVKKEEVEESPTLVKQELTLVKQEPTFAEQLEPMAQPLV”, the “soluble on expression in E. coli” value was “not soluble”.
With “MRILSLILWIAAIVLPVHSASAAPVKMTIVLERQYLDGEMSEEKVTETVDSMTEIWKKYRGWQLVTLDDQTIVFRKTINDISPLLKTNGYFGITDDGTLSIFNGKPDRSSEIIQSFFQIDVQKLESRQQEKLKKGIRVLSKERYEQVIEMYRHFAVVQ” the “soluble on expression in E. coli” value was “not soluble”.
For “MAIQGSRTEGLGGYTFDDLAVVMGTYNEEEAIGTVLDDIATVTDGRAEVICVDGSSDRTPEIARDHGATVIEQEPQGYGVAVREAVLTPDRPVVVTTDCDDTYPMERLPDFLAEINDGADVVSGDRLYYGAEQMPAMNKLGNELFALLASVLMGKRVHDTTTGMRAYRREVLQKIVWTENTGLSAELLMRPLMRGYDVRERPIEYDERKGETKLDPFSGGAAIAKSIVRVALEERFRLEHHHHHH”, the “soluble on expression in E. coli” value was “soluble”.
In the case of “MPMAKPLKYPVSALVVLYSGDGGILLIERTHPEGFWQSVTGSLEPGETVAQTARREVWEETGILLADGQLQDWHDSTVYEIYHHWRHRYPKGVFENREHLFSAEIPRDTPIALQPEEHVSYGWFDMEEAAEKVFSPSNRRAILELGRFLGKR”, the “soluble on expression in E. coli” value is reported as “not soluble”.
For “DTDMGLTRRLPPLSPNKEKQPDVEINDRNIMRILVNKNDEIILLKKGATGSQDQIIPVKLSDLRRITKEFIANPTNRADLPEKEKRE”, the “soluble on expression in E. coli” value was “not soluble”.
With “MNWAKFRETGSPEDTDMSSTPISSDTTAVSKVIDPNYVLMVADFFKAISPDESCNDFTSFDSFSVLFQNNTRALSIARGRVSCSVTVTPGISNFFKGLHGGAVASIAERVAMACVKTVVSEDKHLFIGELSMSYLSSAPISSELLVEGTVVRTGRNLSVVTVEFKIKETMKVTYLSRATFYHSPISKL” the “soluble on expression in E. coli” value was “not soluble”.
In the case of “MARYEEVSVSGFEEFHRAVEQHNGKTIFAYFTGSKDAGGKSWCPDCVQAEPVVREGLKHISEGCVFIYCQVGEKPYWKDPNNDFRKNLKVTAVPTLLKYGTPQKLVESECLQANLVEMLFSED”, the “soluble on expression in E. coli” value is reported as “soluble”.
For “MSGEGDTTLKAICYKPGSLQLLDQRKLPLETIYLEIRDASDGWSAIQEMVVRGAPAIAIAAALSLAVEVFNFHGFDGSASDAVAFLENKLDYLVSSRPTAVNLADAALKLKHVIAKALATATEAKSIFKAYIEASEDMLEDDVVSNKAIGNFGLSLLRQQAKNPDKLSVLTHCNTGSLATAGYGTALGVIRALHTQGILERAYCTETRPFNQGSRLTAFELVHEKIPATLIADSAAAALMKDGRVDGVIVGADRVASNGDTANKIGTYSLALCAKHHGIPFYVAAPLTSVDLSLSSGKEIVIEERSPKELMHTHGGLGERIAAPGISVWNPAFDMTPAELIAGIITEKGVITKNGNDTFDISSFAKKITGNSSR”, the “soluble on expression in E. coli” value was “soluble”.
For “MIERSLNATEKAIESIREGELVRRHTDLELRDMQISMNEDFDRIRGMMHELDEQIHKDRSGNSKWMNQKMEKAKATADQALASTLMVKDVQLLEKKVNILKESVVQVNKSFYKYEKDVDMNDLMDQVIDMVHRTEKKEQDALEAHATDEQAIGKAFRGAIEGLYGLKSSNSKVMEEAKLLAGEMRVFRDAASNKNFHTMISRIASNTATSGVPLKYSSGPESSFSTSAYTSFSKSANNSSMSGSN”, the “soluble on expression in E. coli” value was “not soluble”.
With “MGSDKIHHHHHHMRVIPPIKSIIYFEAAARLQSFKLAAMELNVTPGAISHQISTLEDFIGKKVFERGSRRVTLTYCGLRYYSRISIILQNMEEATVDLGIEGSKPKIKIAIPPSLLKNWLLPRLVDDKLKDLNRSVEFIDTLDYLEFSKCDLDLAIRYGYDSWDNLYSVFLFHEEMIPVCHPNYFISEFTDFTQEIIDNHTLIFTNNRLVQWDIVMQYFGLERKSTQSKLIFQNSIQAIEAAIQGAGIAYVNRILVSKELSNGRLIQPFDIYMPKHKSPAYHLVSTYEHMQDEATFKLYQTILEFAKSTPHQHIVNAQAKQNAWLEHAV” the “soluble on expression in E. coli” value was “not soluble”.
For “MMAAREQRSFRQLSLLRQFEGQSLLCASMNIPGPIKCSESLNKTFQSIINLVKEDLRGRIIFEREVHQKTGWEYYCLSDLPVSELKTKMIAIETKISIGRLMDLDVLHLVNGIPQPISRQELGFPRRQCYICQNDAKVCSRSRKHSVIEMQEAIAKFIKINH”, the “soluble on expression in E. coli” value was “not soluble”.
For “MGSDKIHHHHHHMRKAGESMKEFISLKIDYAFKLIFGKEGNEAILIAFLNAALKLPQERRIEAITIMNPELNKEYQGDKKSILDVRAETSEGMQINIEIQLSNQYDMEKRSLYYWAEMYSRQIREGMAYKELAKAVTINILDFNYLKQTSNYHNVFHLYEDEEKFQLTDALEMHFMELPKLLAKWRNREISPWENELVRWLLLLEGADNQEILQTLEEIAMKDPVLHQAMTAWEETSDDPRIREAYFDRRKAVLDEKAAIREAELRLKEALEKGRAAGIAAGKAEGKAEVAKKLLDLGFEITKVAEATGLSEKDIRSLKD”, the “soluble on expression in E. coli” value was “not soluble”.
With “MSGLLNFGVPKGSLENATVELFRKAGWQISISSRSYFPGVDDDEMNCKLIRPQEMGKYVERGTIDAGIAGRDWVRENESDVVEVCEMVYSKVSRRPARWVLVVTRDSAVQKPEDLHGATISTELVGFTKRYFAERNIPVTVEFSWGAT” the “soluble on expression in E. coli” value was “not soluble”.
In the case of “MAMLGDQSFAAVKRDVPVDPDRQANDYVRCVADAVTREVGGSWEVVLFRQDSPNAFALPGGKIGVHTGMLRIARNQDQLATVLAHEVAHVLSRHANERLSQQVAVQQGLNAMQALADPSSSSGKTLMGLLGLGAQYGILMPYSRTQESEADLLGLDLMARAGFDPRQSIELWNNMANSGGGQPIEFLSTHPSHATRMQDLAKRMPRALDLQRQAAAQGHRPQCDGIRAGGGLEHHHHHH”, the “soluble on expression in E. coli” value is reported as “not soluble”.
With “MKFELDTTDGRARRGRLVFDRGVVETPCFMPVGTYGTVKGMTPEEVEATGAQIILGNTFHLWLRPGQEIMKLHGDLHDFMQWKGPILTDSGGFQVFSLGDIRKITEQGVHFRNPINGDPIFLDPEKSMEIQYDLGSDIVMIFDECTPYPADWDYAKRSMEMSLRWAKRSRERFDSLGNKNALFGIIQGSVYEDLRDISVKGLVDIGFDGYAVGGLAVGEPKADMHRILEHVCPQIPADKPRYLMGVGKPEDLVEGVRRGIDMFDCVMPTRNARNGHLFVTDGVVKIRNAKYKSDTGPLDPECDCYTCRNYSRAYLHHLDRCNEILGARLNTIHNLRYYQRLMAGLRKAIEEGKLESFVTDFYQRQGREVPPLNVD” the “soluble on expression in E. coli” value was “soluble”.
In the case of “MPIVYYDGNCIYCYNYVIWLIQHDLPRNYQFATLKGEVGQQFFKQHPEAANKNSVILQKGDCIYFESQAIIKLITALPNRTKLLGVGLWLVPKPVRNFGYRMFANNRNRMWKTTWHQPNDYEKSFFLDDNAKVKLTDLEHHHHHH”, the “soluble on expression in E. coli” value is reported as “soluble”.
With “GASIVGSWVEPVPGLEGQVQGIKMEEGGVASSVNMATLVYESWKQEGTKLILTGKSIGNGQTIEFVDTMDIKRLTADSLVLDNQGMEIRYAKQK” the “soluble on expression in E. coli” value was “soluble”.
In the case of “MKQFLVALTILTSSLFSFASALDIIDESFLALKEFLDQPDSGAFLSLLERARGIFIVPKYLKLGWVLGGQYGQGVLLKRDPETNTWYGPLFVKMYGLSFGPQIGFQSVSLIAVIMENVDAFAEGNITLGGSLSVAAGPLGRRLSADYNLDASVYSYSIARGFYAGFSLEGAKIDVDLDLTREYYNVYRIEPEEILRREVSGRAEKIVNLLNEKLTEEAAALEHHHHHH”, the “soluble on expression in E. coli” value is reported as “not soluble”.
